Source: US20260242478A1 (published 2026)
Where no end group is shown, it is not given here.

Assays:
[1] = biological target: T1, PSMA Fab (SEQ ID NOs: 19, 20); assay: clonal phage ELISA; biotinylated PSMA Fab captured on neutravidin plate, bound phage detected with anti-M13-HRP
T1 construct: also called Anti-PSMA Fab; 006 PSMA Fab
Experimental: (§1) Clonal phage were harvested as crude supernatants and screened via standard ELISAs. […] Prior to the addition of clonal phage. wells were incubated with blocking buffer and PSMA antigen or blocking buffer alone. Without washing or aspirating, clonal phage supernatants were then added to the wells and incubated for a short time. Wells were then washed followed by detection of bound phage using a horse radish conjugated anti-M13 antibody.

[2] = biological target: T1, PSMA Fab (SEQ ID NOs: 19, 20); assay: clonal phage ELISA; captured biotinylated PSMA Fab pre-incubated with PSMA antigen as competitor, anti-M13-HRP detection
Experimental: as §1

[3] = biological target: T2, PSMA Fab (006 PSMA Fab); assay: clonal phage ELISA on biotinylated PSMA Fab captured on neutravidin plates, anti-M13-HRP detection;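 note: crude clonal phage supernatants added to wells preincubated with PSMA antigen or with blocking buffer only (no wash between), briefly incubated, then washed before detecting bound phage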
T2 construct: also called Anti-PSMA Fab
Experimental: as §1

[4] = biological target: T2, PSMA Fab (006 PSMA Fab); assay: clonal phage ELISA on captured PSMA Fab pre-incubated with PSMA antigen as competitor, anti-M13-HRP detection;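 note: wells blocked with buffer plus PSMA antigen before phage addition, with blocking buffer alone as the no-competitor control, bound phage detected after washing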
Experimental: as §1

[5] = biological target: T3, PSMA Fab (006 PSMA Fab) (biotinylated (site not stated)); assay: clonal phage ELISA on plate-captured biotinylated PSMA Fab, blocking buffer alone, anti-M13 HRP detection
T3 construct: also called Anti-PSMA Fab

[6] = biological target: T3, PSMA Fab (006 PSMA Fab); assay: clonal phage ELISA on plate-captured biotinylated PSMA Fab pre-incubated with PSMA antigen as competitor, anti-M13 HRP detection
Experimental: as §1

Binder | Phage binding ELISA signal, Anti-PSMA Fab [1] | Phage binding ELISA signal, Anti-PSMA Fab with PSMA antigen [2] | Phage binding ELISA signal, Anti-PSMA Fab [3] | Phage binding ELISA signal, Anti-PSMA Fab with PSMA antigen [4] | Phage binding ELISA signal, Anti-PSMA Fab [5] | Phage binding ELISA signal, Anti-PSMA Fab in presence of PSMA [6]
HMIHCVPDWMCEGF (Tested as clonal phage supernatant; not shown: pIII coat protein of the bacteriophage to which the peptide is fused) [Phage-3805 (Peptide-180 library clone, SEQ ID NO: 4121)] | 1.3 | 0.0847 | – | – | – | –
DQAACVPAWMCTGF (Tested as clonal phage supernatant; not shown: pIII coat protein of the bacteriophage to which the peptide is fused) [Phage-3806 (Peptide-180 library clone, SEQ ID NO: 4122)] | 1.3 | 0.117 | – | – | – | –
DARLCKPTWMCMGL (Tested as clonal phage supernatant; not shown: pIII coat protein of the bacteriophage to which the peptide is fused) [Phage-3809 (Peptide-180 library clone, SEQ ID NO: 4125)] | 1.29 | 0.0886 | – | – | – | –
IRALCEPSWMCTGF (Tested as clonal phage supernatant; not shown: pIII coat protein of the bacteriophage to which the peptide is fused) [Phage-3804 (Peptide-180 library clone, SEQ ID NO: 4120)] | 1.3 | 0.0766 | – | – | – | –
QVKYCEPQWMCAGL (cysteine pairing not given here; also: displayed on phage as fusion to pIII, junction not given here) [Phage-3823] | – | – | 1.25 | 0.0788 | – | –
VHIMCVPPWMCERF [Phage-3819] | – | – | 1.27 | 0.0664 | – | –
EVLRCVPRWMCEKF (Tested as clonal phage supernatant; not shown: pIII coat protein of the bacteriophage to which the peptide is fused) [Phage-3802 (Peptide-180 library clone, SEQ ID NO: 4118)] | 1.3 | 0.0658 | – | – | – | –
DPVWCIPQWMCEGF [Phage-3837] | – | – | – | – | 1.23 | 0.0652
GDQMCIPLWMCEGF (Tested as clonal phage supernatant; not shown: pIII coat protein of the bacteriophage to which the peptide is fused) [Phage-3810 (Peptide-180 library clone, SEQ ID NO: 4126)] | 1.29 | 0.106 | – | – | – | –
TSVLCQPLWMCSGF [Phage-3832] | – | – | – | – | 1.24 | 0.0785
PQIWCVPTWMCAAS (cysteine pairing not given here; also: displayed on phage as fusion to pIII, junction not given here) [Phage-3821] | – | – | 1.26 | 0.0743 | – | –
GGPMCKPVWMCQGF (Tested as clonal phage supernatant; not shown: pIII coat protein of the bacteriophage to which the peptide is fused) [Phage-3803 (Peptide-180 library clone, SEQ ID NO: 4119)] | 1.3 | 0.0735 | – | – | – | –
PYSICKPDWMCTGL [Phage-3840] | – | – | – | – | 1.22 | 0.0653
PGMVCKPSWMCSHL [Phage-3825] | – | – | 1.25 | 0.107 | – | –
EAPYCRPSWMCAGF (cysteine pairing not given here; also: displayed on phage as fusion to pIII, junction not given here) [Phage-3824] | – | – | 1.25 | 0.0837 | – | –
YTAMCVPVWMCNVL (cysteine pairing not given here; also: displayed on phage as fusion to pIII, junction not given here, Tested as clonal phage supernatant; not shown: pIII coat protein of the bacteriophage to which the peptide is fused) [Phage-3813 (Peptide-180 library clone, SEQ ID NO: 4129)] | 1.29 | 0.0695 | – | – | – | –
AYPMCSPAWMCAGF (cysteine pairing not given here; also: displayed on phage as fusion to pIII, junction not given here, Tested as clonal phage supernatant; not shown: pIII coat protein of the bacteriophage to which the peptide is fused) [Phage-3812 (Peptide-180 library clone, SEQ ID NO: 4128)] | 1.29 | 0.0779 | – | – | – | –
QEPVCRPAWMCSGF [Phage-3822] | – | – | 1.26 | 0.0764 | – | –
LDLSCVPAWMCTGF [Phage-3816] | – | – | 1.28 | 0.0963 | – | –
ASISCIPDWMCHGF [Phage-3815] | – | – | 1.28 | 0.0872 | – | –
VGIRCEPAWMCEGF [Phage-3833] | – | – | – | – | 1.24 | 0.0645

Binder | Phage binding ELISA signal, Anti-PSMA Fab [1] | Phage binding ELISA signal, Anti-PSMA Fab with PSMA antigen [2] | Phage binding ELISA signal, Anti-PSMA Fab [3] | Phage binding ELISA signal, Anti-PSMA Fab with PSMA antigen [4] | Phage binding ELISA signal, Anti-PSMA Fab [5] | Phage binding ELISA signal, Anti-PSMA Fab in presence of PSMA [6]
VLHKCLPTWMCNGF [Phage-3836] | – | – | – | – | 1.23 | 0.0967
SDYMCRPSWMCEGL [Phage-3838] | – | – | – | – | 1.23 | 0.0632
EWLVCKPAWMCLGL (Tested as clonal phage supernatant; not shown: pIII coat protein of the bacteriophage to which the peptide is fused) [Phage-3801 (Peptide-180 library clone, SEQ ID NO: 4117)] | 1.3 | 0.0609 | – | – | – | –
SEMRCSPPWMCYGF [Phage-3841] | – | – | – | – | 1.22 | 0.0822
ATVVCSPPWMCTGF [Phage-3817] | – | – | 1.27 | 0.0662 | – | –
LLERCVPSWMCLGF [Phage-3820] | – | – | 1.26 | 0.102 | – | –
VDRMCVPPWMCDVL [Phage-3827] | – | – | 1.24 | 0.0859 | – | –
EFKWCVPDWMCYGV (cysteine pairing not given here; also: displayed on phage as fusion to pIII, junction not given here) [Phage-3814] | – | – | 1.29 | 0.0589 | – | –
VVSHCKPIWMCSGF (Tested as clonal phage supernatant; not shown: pIII coat protein of the bacteriophage to which the peptide is fused) [Phage-3807 (Peptide-180 library clone, SEQ ID NO: 4123)] | 1.29 | 0.083 | – | – | – | –
PEIRCAPLWMCVGF [Phage-3829] | – | – | – | – | 1.24 | 0.0725
GMKTCVPAWMCVGF [Phage-3831] | – | – | – | – | 1.24 | 0.08
IDRHCIPAWMCEQF [Phage-3828] | – | – | – | – | 1.24 | 0.0571
LELLCRPSWMCEGF (cysteine pairing not given here; also: displayed on phage as fusion to pIII, junction not given here, Tested as clonal phage supernatant; not shown: pIII coat protein of the bacteriophage to which the peptide is fused) [Phage-3800 (Peptide-180 library clone, SEQ ID NO: 4116)] | 1.3 | 0.0665 | – | – | – | –
VDRVCIPTWMCEGI [Phage-3834] | – | – | – | – | 1.23 | 0.0575
VQHWCVPAWMCYGL [Phage-3826] | – | – | 1.24 | 0.107 | – | –
FWQRCVPTWMCEGF [Phage-3835] | – | – | – | – | 1.23 | 0.148
SFQRCEPEWMCYGF (Tested as clonal phage supernatant; not shown: pIII coat protein of the bacteriophage to which the peptide is fused) [Phage-3811 (Peptide-180 library clone, SEQ ID NO: 4127)] | 1.29 | 0.0768 | – | – | – | –
NYNACVPIWMCEGF [Phage-3839] | – | – | – | – | 1.22 | 0.104
ENAKCSPAWMCVGF [Phage-3818] | – | – | 1.27 | 0.0752 | – | –
LGVQCKPTWMCQGF (Tested as clonal phage supernatant; not shown: pIII coat protein of the bacteriophage to which the peptide is fused) [Phage-3808 (Peptide-180 library clone, SEQ ID NO: 4124)] | 1.29 | 0.0911 | – | – | – | –
PPRACVPSWMCTGF [Phage-3830] | – | – | – | – | 1.24 | 0.0854
